# How the values were obtained:
# [1] = target: T1, anti-NP (4-hydroxy-3-nitrophenylacetyl) antibody clone 3B62 IgG1, afucosylated; assay: SPR, 1:1 Langmuir global kinetic fit, 256 to 16 nM in 2-fold steps
# T1 construct: In the FcγRIIIA ELISA it stood as an immune complex with NP-BSA (10:1); also called 3B62 IgG1 G2; monomeric 3B62
# [2] = target: T2, IgG1, G0 afucosylated glycoform (antibody not named); assay: sandwich ELISA, IgG titrated
# T2 construct: also called GO
binder,measurement,setting,value
"B7 (VHH, also called clone B7; nanobody B7; not shown: His tag and AviTag of the pET26-b(+) construct) VHH: QVQLQESGGGLVQAGGSLRLSCAASGGISRYKTMGWYRQAPGKEREFVAGITWGGSTYYADSVKGRFTISRDNAKNTVYLQMNSLKPEDTAVYYCSVDGGTYADPYHYYWGQGTQVTVSS",Kd,[1],3.76 µM
same,EC50 (read off the curve),[2],~0.4 µg/mL
